The values below come from paper PMC5063997, “Engineered Tissue Inhibitor of Metalloproteinases-3 Variants Resistant to Endocytosis Have Prolonged Chondroprotective Activity*” (The Journal of Biological Chemistry, 2016).

Experiment [1] concerns the target low density lipoprotein receptor-related protein 1 (LRP1), full-length (UniProt Q07954).
For experiment [2] the target is unchanged. The source holds these as a separate data set.
For experiment [3], the target named is T1, ADAMTS-5 lacking the C-terminal thrombospondin domain (UniProt Q9UNA0 262-874).
T1 construct: ADAMTS-5 without its C-terminal thrombospondin domain
T1 sequence (looked up): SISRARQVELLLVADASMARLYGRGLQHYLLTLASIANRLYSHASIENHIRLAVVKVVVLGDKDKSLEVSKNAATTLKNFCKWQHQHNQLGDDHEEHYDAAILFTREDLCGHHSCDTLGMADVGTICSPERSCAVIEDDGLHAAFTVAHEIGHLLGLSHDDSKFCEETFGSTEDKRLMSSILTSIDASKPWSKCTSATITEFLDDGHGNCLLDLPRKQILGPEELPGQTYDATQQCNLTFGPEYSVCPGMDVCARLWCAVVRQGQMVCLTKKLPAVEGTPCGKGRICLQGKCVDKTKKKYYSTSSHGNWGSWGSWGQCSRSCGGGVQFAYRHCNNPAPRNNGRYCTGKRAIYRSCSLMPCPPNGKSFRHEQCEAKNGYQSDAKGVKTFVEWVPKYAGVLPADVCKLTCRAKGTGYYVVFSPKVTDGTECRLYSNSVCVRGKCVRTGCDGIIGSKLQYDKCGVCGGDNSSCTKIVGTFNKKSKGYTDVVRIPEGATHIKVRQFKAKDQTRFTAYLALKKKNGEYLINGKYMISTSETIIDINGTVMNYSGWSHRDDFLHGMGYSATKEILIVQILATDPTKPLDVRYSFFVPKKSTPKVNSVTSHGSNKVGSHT
The experiment can be described thus: enzyme inhibition under equilibrium conditions (Ki(app), tight binding equation); apparent; metalloproteinase (0.5-1 nM) preincubated with wild-type or mutant TIMP-3 (0.25-25 nM) 1 h at 37 °C, residual activity on fluorescence-quenched substrates; 50 mM Tris-HCl pH 7.5, 150 mM NaCl, 10 mM CaCl2, 0.05% Brij 35, 0.02% NaN3. The note with it: both partners purified.

Experiment [4] deals with T2, catalytic domain of MMP-2 (MMP-2ΔC) (UniProt P08253 110-444).
T2 construct: MMP-2, catalytic domain
T2 sequence (P08253 110-444, stated change not applied): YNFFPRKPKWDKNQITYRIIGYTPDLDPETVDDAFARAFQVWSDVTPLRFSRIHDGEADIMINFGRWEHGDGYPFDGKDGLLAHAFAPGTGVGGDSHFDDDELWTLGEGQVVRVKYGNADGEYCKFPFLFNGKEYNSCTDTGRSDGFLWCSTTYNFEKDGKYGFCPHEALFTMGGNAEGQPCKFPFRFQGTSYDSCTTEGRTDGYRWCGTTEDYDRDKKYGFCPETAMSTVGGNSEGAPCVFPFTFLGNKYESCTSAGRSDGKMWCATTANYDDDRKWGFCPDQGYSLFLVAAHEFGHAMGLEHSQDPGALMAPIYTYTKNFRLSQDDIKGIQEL
The experiment is described as above. The note with it: both partners purified.

Experiment [5] addresses T3, ADAMTS-4 lacking the C-terminal spacer domain (UniProt O75173 213-685).
T3 construct: ADAMTS-4 without its C-terminal spacer domain
T3 sequence (looked up): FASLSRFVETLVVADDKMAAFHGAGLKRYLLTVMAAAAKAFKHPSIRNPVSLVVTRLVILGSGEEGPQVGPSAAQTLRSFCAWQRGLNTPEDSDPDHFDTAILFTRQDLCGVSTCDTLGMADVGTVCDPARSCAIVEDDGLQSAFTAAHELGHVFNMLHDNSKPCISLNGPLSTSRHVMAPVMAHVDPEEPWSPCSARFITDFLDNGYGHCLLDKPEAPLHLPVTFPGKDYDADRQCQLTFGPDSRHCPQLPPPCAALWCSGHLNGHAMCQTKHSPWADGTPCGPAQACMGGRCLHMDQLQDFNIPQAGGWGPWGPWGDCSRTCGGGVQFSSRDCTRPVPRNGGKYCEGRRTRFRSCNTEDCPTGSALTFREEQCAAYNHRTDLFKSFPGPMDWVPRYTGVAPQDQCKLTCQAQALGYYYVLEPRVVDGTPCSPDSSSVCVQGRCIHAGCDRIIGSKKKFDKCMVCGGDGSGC
Described as above. To be noted: both partners purified.

For experiment [6], the target named is T4, catalytic domain of MMP-3 (MMP-3ΔC) (UniProt P08254 100-272).
T4 construct: MMP-3, catalytic domain
T4 sequence (P08254 100-272, stated change not applied): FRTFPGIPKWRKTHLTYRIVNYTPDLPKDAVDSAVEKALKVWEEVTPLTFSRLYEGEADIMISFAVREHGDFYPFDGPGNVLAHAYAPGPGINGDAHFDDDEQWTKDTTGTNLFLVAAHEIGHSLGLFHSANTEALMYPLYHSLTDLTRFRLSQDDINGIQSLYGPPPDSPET
Described as above. To be noted: both partners purified.

For experiment [7], the target named is T5, catalytic domain of MMP-1 (MMP-1ΔC) (UniProt P03956 100-269).
T5 construct: MMP-1, catalytic domain
T5 sequence (looked up): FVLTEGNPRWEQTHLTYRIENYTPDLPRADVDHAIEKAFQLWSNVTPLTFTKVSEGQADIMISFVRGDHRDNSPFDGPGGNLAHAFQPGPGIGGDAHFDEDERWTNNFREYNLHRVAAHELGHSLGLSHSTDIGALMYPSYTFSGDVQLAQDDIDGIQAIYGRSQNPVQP
The description is as above. To be noted: both partners purified.

Experiment [8] deals with T6, ADAM17 ectodomain (UniProt P78536 215-671).
T6 construct: ADAM17, ectodomain; source: gift from Professor Gillian Murphy (University of Cambridge)
The experiment can be described thus: enzyme inhibition under equilibrium conditions (Ki(app), tight binding equation); apparent; ADAM17 preincubated with wild-type or mutant TIMP-3 (0.25-25 nM) 1 h at 37 °C, residual activity on a fluorescence-quenched substrate; 50 mM Tris-HCl pH 7.5, 25 mM NaCl, 10 mM CaCl2, 0.05% Brij 35, 0.02% NaN3. The note with it: both partners purified.

For experiment [9], the target named is low density lipoprotein receptor-related protein 1 (LRP1), full-length (UniProt Q07954 20-4544). As to the kind of experiment: cell-based or functional assay.
low density lipoprotein receptor-related protein 1 (LRP1), full-length (UniProt Q07954 20-4544), sequence (Q07954 20-4544): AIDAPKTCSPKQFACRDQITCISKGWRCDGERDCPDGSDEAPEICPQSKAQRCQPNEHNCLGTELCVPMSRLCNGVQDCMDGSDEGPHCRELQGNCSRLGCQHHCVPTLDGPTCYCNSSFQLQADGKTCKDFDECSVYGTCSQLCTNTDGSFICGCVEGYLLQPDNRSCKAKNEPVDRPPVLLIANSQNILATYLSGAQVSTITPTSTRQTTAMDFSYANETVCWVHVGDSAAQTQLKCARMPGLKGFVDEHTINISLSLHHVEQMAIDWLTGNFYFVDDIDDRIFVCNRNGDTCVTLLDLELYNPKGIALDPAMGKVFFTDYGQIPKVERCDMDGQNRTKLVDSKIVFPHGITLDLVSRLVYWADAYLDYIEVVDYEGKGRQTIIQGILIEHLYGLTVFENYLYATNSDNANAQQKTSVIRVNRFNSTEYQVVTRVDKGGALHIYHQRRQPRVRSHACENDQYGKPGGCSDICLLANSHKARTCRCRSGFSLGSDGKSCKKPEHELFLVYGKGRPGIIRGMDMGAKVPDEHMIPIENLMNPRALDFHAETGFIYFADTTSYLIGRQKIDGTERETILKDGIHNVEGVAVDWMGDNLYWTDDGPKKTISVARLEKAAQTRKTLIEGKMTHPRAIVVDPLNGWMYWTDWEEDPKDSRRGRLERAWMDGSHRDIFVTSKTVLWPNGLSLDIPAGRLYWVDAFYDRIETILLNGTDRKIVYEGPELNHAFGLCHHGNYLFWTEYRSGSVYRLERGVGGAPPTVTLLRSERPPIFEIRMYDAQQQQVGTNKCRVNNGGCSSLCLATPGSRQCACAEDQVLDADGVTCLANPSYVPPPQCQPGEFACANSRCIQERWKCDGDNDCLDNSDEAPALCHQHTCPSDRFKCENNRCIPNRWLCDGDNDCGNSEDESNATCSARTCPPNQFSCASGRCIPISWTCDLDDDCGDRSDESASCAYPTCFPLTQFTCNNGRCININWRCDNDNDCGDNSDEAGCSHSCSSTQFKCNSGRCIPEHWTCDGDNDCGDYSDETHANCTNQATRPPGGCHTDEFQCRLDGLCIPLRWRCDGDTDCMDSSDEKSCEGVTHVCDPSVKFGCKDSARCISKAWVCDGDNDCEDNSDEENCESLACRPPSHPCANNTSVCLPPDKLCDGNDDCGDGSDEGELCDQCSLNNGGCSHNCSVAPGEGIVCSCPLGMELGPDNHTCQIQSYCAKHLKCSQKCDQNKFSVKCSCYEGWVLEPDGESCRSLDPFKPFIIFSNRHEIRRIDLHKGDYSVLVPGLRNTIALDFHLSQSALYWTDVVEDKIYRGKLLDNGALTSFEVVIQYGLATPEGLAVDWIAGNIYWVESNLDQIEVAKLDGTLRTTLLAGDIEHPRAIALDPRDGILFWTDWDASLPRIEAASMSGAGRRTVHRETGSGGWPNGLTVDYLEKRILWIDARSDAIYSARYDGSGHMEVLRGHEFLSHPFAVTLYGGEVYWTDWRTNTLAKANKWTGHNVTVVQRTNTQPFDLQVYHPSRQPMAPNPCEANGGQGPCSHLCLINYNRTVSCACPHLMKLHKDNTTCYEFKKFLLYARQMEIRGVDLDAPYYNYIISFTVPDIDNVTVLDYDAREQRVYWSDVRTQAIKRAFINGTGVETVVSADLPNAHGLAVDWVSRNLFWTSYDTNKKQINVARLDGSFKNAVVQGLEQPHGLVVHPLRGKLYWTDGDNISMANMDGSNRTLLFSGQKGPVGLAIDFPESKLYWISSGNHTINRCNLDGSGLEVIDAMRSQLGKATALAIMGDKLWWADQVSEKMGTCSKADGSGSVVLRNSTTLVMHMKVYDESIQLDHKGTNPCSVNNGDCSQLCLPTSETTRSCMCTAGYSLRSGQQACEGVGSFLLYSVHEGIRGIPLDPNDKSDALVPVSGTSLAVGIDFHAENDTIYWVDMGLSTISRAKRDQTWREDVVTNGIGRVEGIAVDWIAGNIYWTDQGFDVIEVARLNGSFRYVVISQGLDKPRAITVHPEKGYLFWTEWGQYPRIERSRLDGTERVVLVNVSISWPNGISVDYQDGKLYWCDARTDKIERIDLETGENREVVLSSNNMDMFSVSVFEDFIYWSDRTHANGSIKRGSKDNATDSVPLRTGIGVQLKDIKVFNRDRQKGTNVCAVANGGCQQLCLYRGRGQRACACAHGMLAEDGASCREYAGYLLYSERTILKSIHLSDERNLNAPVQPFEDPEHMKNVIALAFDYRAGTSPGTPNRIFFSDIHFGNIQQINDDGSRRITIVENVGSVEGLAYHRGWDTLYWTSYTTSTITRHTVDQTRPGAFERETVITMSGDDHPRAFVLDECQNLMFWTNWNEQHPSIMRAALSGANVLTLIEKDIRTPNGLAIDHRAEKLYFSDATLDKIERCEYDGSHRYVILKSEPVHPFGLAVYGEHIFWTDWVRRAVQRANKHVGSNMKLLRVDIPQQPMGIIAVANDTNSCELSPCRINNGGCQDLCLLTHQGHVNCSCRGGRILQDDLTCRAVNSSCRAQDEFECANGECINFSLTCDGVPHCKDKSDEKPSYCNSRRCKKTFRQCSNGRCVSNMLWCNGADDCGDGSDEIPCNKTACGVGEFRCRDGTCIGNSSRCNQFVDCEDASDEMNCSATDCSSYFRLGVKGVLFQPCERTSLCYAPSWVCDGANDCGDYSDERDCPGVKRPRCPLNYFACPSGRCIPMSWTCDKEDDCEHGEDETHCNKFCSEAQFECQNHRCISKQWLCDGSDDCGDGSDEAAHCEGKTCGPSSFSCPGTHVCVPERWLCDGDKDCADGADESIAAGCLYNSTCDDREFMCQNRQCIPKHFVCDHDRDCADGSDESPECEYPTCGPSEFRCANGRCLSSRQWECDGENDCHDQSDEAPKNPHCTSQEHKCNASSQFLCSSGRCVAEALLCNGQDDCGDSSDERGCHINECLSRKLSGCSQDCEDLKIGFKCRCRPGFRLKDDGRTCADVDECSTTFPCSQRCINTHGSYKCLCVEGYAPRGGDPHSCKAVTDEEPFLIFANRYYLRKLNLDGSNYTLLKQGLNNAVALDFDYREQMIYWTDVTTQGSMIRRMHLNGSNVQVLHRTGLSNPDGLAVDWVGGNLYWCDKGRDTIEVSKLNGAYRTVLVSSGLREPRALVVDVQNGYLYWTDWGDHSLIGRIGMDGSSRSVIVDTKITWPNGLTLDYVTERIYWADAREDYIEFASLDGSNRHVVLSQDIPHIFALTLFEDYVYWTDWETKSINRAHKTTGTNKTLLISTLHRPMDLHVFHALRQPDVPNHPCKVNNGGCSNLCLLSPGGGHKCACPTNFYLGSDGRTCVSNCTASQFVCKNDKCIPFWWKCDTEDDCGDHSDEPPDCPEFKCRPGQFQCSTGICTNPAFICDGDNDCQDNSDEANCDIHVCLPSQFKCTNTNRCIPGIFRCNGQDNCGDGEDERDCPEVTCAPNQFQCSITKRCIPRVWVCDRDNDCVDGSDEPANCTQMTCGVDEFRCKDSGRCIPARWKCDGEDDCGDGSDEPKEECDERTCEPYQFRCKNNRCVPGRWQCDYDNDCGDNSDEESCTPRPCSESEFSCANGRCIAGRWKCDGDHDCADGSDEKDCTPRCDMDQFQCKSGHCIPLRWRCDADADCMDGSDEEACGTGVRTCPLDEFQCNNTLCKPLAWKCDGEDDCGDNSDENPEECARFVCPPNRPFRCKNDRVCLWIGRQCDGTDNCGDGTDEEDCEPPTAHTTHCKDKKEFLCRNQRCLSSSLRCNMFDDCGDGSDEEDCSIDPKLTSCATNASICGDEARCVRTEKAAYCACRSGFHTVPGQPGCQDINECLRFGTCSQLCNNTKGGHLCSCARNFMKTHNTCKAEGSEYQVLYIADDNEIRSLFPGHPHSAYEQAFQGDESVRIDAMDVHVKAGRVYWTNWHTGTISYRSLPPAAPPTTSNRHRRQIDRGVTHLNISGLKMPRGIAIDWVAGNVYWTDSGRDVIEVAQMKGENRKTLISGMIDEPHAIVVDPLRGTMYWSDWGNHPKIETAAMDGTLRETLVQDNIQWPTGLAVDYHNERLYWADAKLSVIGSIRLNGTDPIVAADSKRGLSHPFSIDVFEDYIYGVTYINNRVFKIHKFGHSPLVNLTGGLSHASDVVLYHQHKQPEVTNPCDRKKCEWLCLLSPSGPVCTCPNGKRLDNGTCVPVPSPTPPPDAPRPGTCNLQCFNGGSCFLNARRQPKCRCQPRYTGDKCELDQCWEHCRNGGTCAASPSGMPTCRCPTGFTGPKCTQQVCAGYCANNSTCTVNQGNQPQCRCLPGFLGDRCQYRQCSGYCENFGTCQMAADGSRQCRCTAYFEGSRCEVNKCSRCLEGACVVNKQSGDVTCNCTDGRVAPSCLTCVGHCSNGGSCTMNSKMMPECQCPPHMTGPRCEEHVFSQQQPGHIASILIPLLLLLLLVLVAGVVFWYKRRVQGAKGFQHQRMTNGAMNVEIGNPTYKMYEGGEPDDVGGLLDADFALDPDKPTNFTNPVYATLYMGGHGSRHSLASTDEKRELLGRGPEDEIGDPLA
Experiment [10] deals with T1, ADAMTS-5 lacking the C-terminal …. The experiment can be described thus: enzyme inhibition under equilibrium conditions (Ki(app), tight binding equation); apparent; ADAMTS-5 (0.5 nM) preincubated with TIMP-3 (0.5-10 nM) with heparin (100 nM) 1 h at 37 °C, residual activity 18 h at 37 °C; 50 mM Tris-HCl pH 7.5, 150 mM NaCl, 10 mM CaCl2, 0.05% Brij 35, 0.02% NaN3. To be noted: both partners purified.

Substitutions are numbered along the chain they refer to. Numbers in names are those of the source.

low density lipoprotein receptor-related protein 1 (LRP1), full-length (UniProt Q07954), sequence (Q07954 20-4544): as above

B1: TIMP-3 K22A/K110A, C-terminally FLAG-tagged (natural protein)
chain: CTCSPSHPQDAFCNSDIVIRAAVVGKKLVKEGPFGTLVYTIKQMKMYRGFTKMPHVQYIHTEASESLCGLKLEVNKYQYLLTGRVYDGKMYTGLCNFVERWDQLTLSQRAGLNYRYHLGCNCKIKSCYYLPCFVTSKNECLWTDMLSNFGYPGYQSKHYACIRQKGGYCSWYRGWAPPDKSIINATDP
In the case of B1, the percentage remaining in the medium of HTB94 chondrosarcoma cells after 24 h (1 nM, anti-FLAG immunoblot and densitometry) in experiment [1] is greater than 50%.

B2: TIMP-3 K71A, C-terminally FLAG-tagged (natural protein)
chain: B1 chain with A22K, K71A, A110K
The molecule B2 gave a half-life of loss from the medium of HTB94 chondrosarcoma cells (1 nM, 0-24 h, anti-FLAG immunoblot and densitometry) in [2] of 12.9 h.

B3: TIMP-3 K22A/K157A, C-terminally FLAG-tagged (natural protein)
chain: B1 chain with A110K, K157A
With B3, the percentage remaining in the medium of HTB94 chondrosarcoma cells after 24 h (1 nM, anti-FLAG immunoblot and densitometry) in experiment [1] was greater than 50%.

B4: TIMP-3 K157A, C-terminally FLAG-tagged (natural protein)
chain: B1 chain with A22K, A110K, K157A
In experiment [2], B4 gave a half-life of loss from the medium of HTB94 chondrosarcoma cells (1 nM, 0-24 h, anti-FLAG immunoblot and densitometry) of 7.8 h.

B5: TIMP-3 K71A/K157A, C-terminally FLAG-tagged (natural protein)
chain: B1 chain with A22K, K71A, A110K, K157A
Molecule B5 displayed a percentage remaining in the medium of HTB94 chondrosarcoma cells after 24 h (1 nM, anti-FLAG immunoblot and densitometry) in [1] greater than 50%.

B6: TIMP-3 K30A/K52A, C-terminally FLAG-tagged (natural protein)
chain: B1 chain with A22K, K30A, K52A, A110K
In turn, B6 had a percentage remaining in the medium of HTB94 chondrosarcoma cells after 24 h (1 nM, anti-FLAG immunoblot and densitometry) in experiment [1] greater than 50%.

B7: TIMP-3 K42A, C-terminally FLAG-tagged (natural protein)
chain: B1 chain with A22K, K42A, A110K
Consider B7, for which the half-life of loss from the medium of HTB94 chondrosarcoma cells (1 nM, 0-24 h, anti-FLAG immunoblot and densitometry) in experiment [2] was 8.8 h.

B8: TIMP-3 K42A/K157A, C-terminally FLAG-tagged (natural protein)
chain: B1 chain with A22K, K42A, A110K, K157A
B8: the percentage remaining in the medium of HTB94 chondrosarcoma cells after 24 h (1 nM, anti-FLAG immunoblot and densitometry) in experiment [1] was greater than 50%.

B9: wild-type TIMP-3 (tissue inhibitor of metalloproteinases-3), C-terminally FLAG-tagged (natural protein, UniProt P35625 24-211, looked up)
chain: B1 chain with A22K, A110K
notes: TIMP-3, secreted into the conditioned medium; source: for the screen also transiently transfected, conditioned medium dialyzed against TBS; not shown: FLAG, C-terminal, kept
As for B9, the Ki in experiment [3] came to 1.27 nM; in experiment [4], 0.6 nM; in [5], 0.19 nM; in experiment [6] it was 1.2 nM; in experiment [7] it was 1.2 nM; in [8] it was 3.54 nM. Further, in experiment [9], the “half-life of loss from the medium of HTB94 chondrosarcoma cells (1 nM, 0-24 h, anti-FLAG immunoblot and densitometry)” value stood at 3.6 h. For the same molecule, the “half-life of uptake from the medium of LRP1 wild-type PEA10 cells (1 nM, 0-8 h); remained at the same level in the medium of LRP1-null PEA13 cells” value in experiment [9] is 1.9 h.

B10: TIMP-3 K45A/K89A, C-terminally FLAG-tagged (natural protein)
chain: B1 chain with A22K, K45A, K89A, A110K
The molecule B10 gave a percentage remaining in the medium of HTB94 chondrosarcoma cells after 24 h (1 nM, anti-FLAG immunoblot and densitometry) in experiment [1] greater than 50%.

B11: TIMP-3 K27A/K45A, C-terminally FLAG-tagged (natural protein)
chain: B1 chain with A22K, K27A, K45A, A110K
B11: the percentage remaining in the medium of HTB94 chondrosarcoma cells after 24 h (1 nM, anti-FLAG immunoblot and densitometry) in experiment [1] is greater than 50%.

B12: TIMP-3 K30A/K76A, C-terminally FLAG-tagged (natural protein)
chain: B1 chain with A22K, K30A, K76A, A110K
In the case of B12, in experiment [1], the percentage remaining in the medium of HTB94 chondrosarcoma cells after 24 h (1 nM, anti-FLAG immunoblot and densitometry) was greater than 50%.

B13: TIMP-3 K42A/K110A, C-terminally FLAG-tagged (natural protein, UniProt P35625 24-211, looked up)
chain: B1 chain with A22K, K42A
notes: TIMP-3, secreted into the conditioned medium; The discussion once calls this mutant K45A/K110A; source: for the screen also transiently transfected, conditioned medium dialyzed against TBS; not shown: FLAG, C-terminal, kept
In the case of B13, the Ki came out at 1.12 nM in [3]; 0.6 nM in experiment [4]; 0.24 nM in experiment [5]; 1.4 nM in experiment [6]; 0.6 nM in experiment [7]; 2.34 nM in [8]. The Ki in experiment [10] amounted to 1.2 nM.

B14: TIMP-3 K26A/K45A, C-terminally FLAG-tagged (natural protein, UniProt P35625 24-211, looked up)
chain: B1 chain with A22K, K26A, K45A, A110K
notes: as for B9
For the molecule B14, the Ki was 0.95 nM in experiment [3]; 0.63 nM in experiment [4]; 0.12 nM in [5]; 0.92 nM in experiment [6]; 0.52 nM in experiment [7]; 3.78 nM in [8].
